Reference: patent publication US20250163186A1 (PHYLAXIS BIOSCIENCE, published 2025)
Numbering of substitutions follows the chain as printed.

B1: 2-1F11 (VHH)
VHH: EVQLLESGGGEVQPGGSLRLSCVASGITFSSYNMGWLRQAPGKEREFVGLSGSSSTSTYYAESVKGRFTISRDNAKNTVYLQMTSLRAEDTAVYYCAARRLLSTYWSDRSWDFWGQGTLVTVEP
notes: also called hzB10v40 VHH, CDR1 site 2 L to I
B2: 3-1H1 (VHH)
VHH: B1 VHH with I27L, T28I
notes: also called hzB10v40 VHH, CDR1 site 3 T to I
B3: 4-1F10 (VHH)
VHH: B1 VHH with I27L, F29Y
notes: also called hzB10v40 VHH, CDR1 site 4 F to Y
B4: 6C2 (VHH)
VHH: B1 VHH with I27L, S31Q
notes: also called hzB10v40 VHH, CDR1 site 6 S to Q
B5: 5A1 (VHH)
VHH: B1 VHH with I27L, S30K
notes: also called hzB10v40 VHH, CDR1 site 5 S to K
B6: 3-1B9 (VHH)
VHH: B1 VHH with I27L, T28N
notes: also called hzB10v40 VHH, CDR1 site 3 T to N
B7: 2-2C3 (VHH)
VHH: B1 VHH with I27V
notes: also called hzB10v40 VHH, CDR1 site 2 L to V
B8: 6A9 (VHH)
VHH: B1 VHH with I27L, S31E
notes: also called hzB10v40 VHH, CDR1 site 6 S to E
B9: 3-1A1 (VHH)
VHH: B1 VHH with I27L, T28V
notes: also called hzB10v40 VHH, CDR1 site 3 T to V
B10: 5H11 (VHH)
VHH: B1 VHH with I27L, S30R
notes: also called hzB10v40 VHH, CDR1 site 5 S to R
B11: 5C3 (VHH)
VHH: B1 VHH with I27L, S30D
notes: also called hzB10v40 VHH, CDR1 site 5 S to D
B12: 5A10 (VHH)
VHH: B1 VHH with I27L, S30A
notes: also called hzB10v40 VHH, CDR1 site 5 S to A
B13: 4-1F11 (VHH)
VHH: B1 VHH with I27L, F29P
notes: also called hzB10v40 VHH, CDR1 site 4 F to P
B14: 6F11 (VHH)
VHH: B1 VHH with I27L, S31R
notes: also called hzB10v40 VHH, CDR1 site 6 S to R
B15: 4-2E2 (VHH)
VHH: B1 VHH with I27L, F29G
notes: also called hzB10v40 VHH, CDR1 site 4 F to G
B16: 6E11 (VHH)
VHH: B1 VHH with I27L, S31T
notes: also called hzB10v40 VHH, CDR1 site 6 S to T
B17: 3-1B10 (VHH)
VHH: B1 VHH with I27L, T28K
notes: also called hzB10v40 VHH, CDR1 site 3 T to K

Biological target: T1, human IgE (human, UniProt P01854 1-428)
T1 construct: written under the same molecule; also called IgE (Abcam ab65866); soluble IgE
T1 sequence (P01854 other isoform, or with tags, fused parts or gaps limits assumed, form in doubt): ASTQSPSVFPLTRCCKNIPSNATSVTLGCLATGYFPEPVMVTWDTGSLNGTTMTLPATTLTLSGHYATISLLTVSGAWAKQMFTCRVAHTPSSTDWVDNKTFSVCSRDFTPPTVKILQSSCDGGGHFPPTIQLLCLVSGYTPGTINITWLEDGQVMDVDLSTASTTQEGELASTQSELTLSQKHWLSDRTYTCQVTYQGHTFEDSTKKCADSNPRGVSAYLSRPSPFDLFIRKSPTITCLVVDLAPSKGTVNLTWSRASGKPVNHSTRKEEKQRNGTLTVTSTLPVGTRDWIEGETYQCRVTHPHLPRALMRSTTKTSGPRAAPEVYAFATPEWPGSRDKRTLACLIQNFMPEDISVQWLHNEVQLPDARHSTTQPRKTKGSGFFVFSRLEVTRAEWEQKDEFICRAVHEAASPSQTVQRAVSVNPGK
Assay: ELISA, clone lysate on IgE-coated plate
Description: Each amino acid in CDR1 (SEQ ID NO:3), CDR2 (SEQ ID NO:68), and CDR3 (SEQ ID NO:74) was randomly replaced such that the 20 natural amino acids would likely all have been sampled at every position. The expression vector for the VHH containing the mutagenized CDRs was then transfected into E. coli, and at least 96 clones were randomly chosen for each position mutated in each CDR. This gives likely coverage of all potential mutations at each position since the probability to get any given amino acid at that position is 5%. […] The heat maps represent the relative binding for each clone determined by the range of OD values from the ELISA background to WT CDR binding (FIGS. 16A-16C). Site numbering for each residue tested is indicated by the inset tables in FIGS. 16A-16C.

Binder	Confirm OD450 Duplicate1	Confirm OD450 Duplicate2	R1 Screening OD450
B1	0.647	0.601	0.754
B2	0.567	0.559	0.857
B3	0.697	0.545	0.709
B4	0.534	0.526	0.826
B5	0.609	0.573	0.914
B6	0.585	0.634	0.945
B7	0.621	0.62	0.914
B8	0.475	0.488	0.852
B9	0.607	0.572	0.896
B10	0.545	0.55	0.893
B11	0.546	0.556	0.897
B12	0.554	0.549	0.96
B13	0.582	0.483	0.798
B14	0.417	0.402	0.885
B15	0.579	0.586	1.05
B16	0.454	0.468	0.817
B17	0.57	0.594	0.904
